Reference: US20230322953A1 (HARBOUR BIOMED SHANGHAI, published 2023)
Changes are numbered by the printed parent chain.

B1: PR001995 (bispecific antibody, IgG1)
chain 1: EVQLLESGGGLVQPGGSLRLSCAASGFTFNTYAMNWVRQAPGKGLEWVSRIRSKYNNYATYYADSVKDRFTISRDDSKSTLYLQMNSLRAEDTAVYYCVRHGNFGNSYVSWFAYWGQGTLVTVSSASTKGPSVFPLAPSSKSTSGGTAALGCLVKDYFPEPVTVSWNSGALTSGVHTFPAVLQSSGLYSLSSVVTVPSSSLGTQTYICNVNHKPSNTKVDKKVEPKSC
chain 2: QAVVTQEPSLTVSPGGTVTLTCRSSTGAVTTSNYANWVQQKPGQAPRGLIGGTNKRAPWTPARFSGSLLGDKAALTLLGAQPEDEAEYFCALWYSNLWVFGGGTKLTVLGQPKAAPSVTLFPPSSEELQANKATLVCLISDFYPGAVTVAWKADSSPVKAGVETTTPSKQSNNKYAASSYLSLTPEQWKSHRSYSCQVTHEGSTVEKTVAPTECSDKTHTCPPCPAPEAAGGPSVFLFPPKPKDTLMISRTPEVTCVVVDVSHEDPEVKFNWYVDGVEVHNAKTKPREEQYNSTYRVVSVLTVLHQDWLNGKEYKCKVSNKALGAPIEKTISKAKGQPREPQVYTLPPCREEMTKNQVSLWCLVKGFYPSDIAVEWESNGQPENNYKTTPPVLDSDGSFFLYSKLTVDKSRWQQGNVFSCSVMHEALHNHYTQKSLSLSPGK
chain 3: EVQLLESGGGLVQPGGSLRLSCAASGFTFSSYAMIWVRQAPGKGLEWVSGISESGGSTYYADSVKGRFTISRDNSKNTLYLQMNSLRAEDTAVYFCVKDLDDILTGYYKDYWGQGTLVTVSSASEPKSSDKTHTCPPCPAPEAAGGPSVFLFPPKPKDTLMISRTPEVTCVVVDVSHEDPEVKFNWYVDGVEVHNAKTKPREEQYNSTYRVVSVLTVLHQDWLNGKEYKCKVSNKALGAPIEKTISKAKGQPREPQVCTLPPSREEMTKNQVSLSCAVKGFYPSDIAVEWESNGQPENNYKTTPPVLDSDGSFFLVSKLTVDKSRWQQGNVFSCSVMHEALHNHYTQKSLSLSPGK
notes: CD3 Fab from PR000511, BCMA VH from PR000940; IgG1 knob/hole, AAG
B2: PR001996 (bispecific antibody, IgG1)
chain 1: B1 chain 1
chain 2: B1 chain 2
chain 3: EVQLVETGGGLIQPGGSLRLSCAASGFPVSSNYMSWVRQAPGKGLEWVSVIFSGGRTYYADSVKGRFTISRDNSKNTLYLQMNSLRAEDTAVYYCARRNWIDGRDAFDIWGQGTMVTVSSASEPKSSDKTHTCPPCPAPEAAGGPSVFLFPPKPKDTLMISRTPEVTCVVVDVSHEDPEVKFNWYVDGVEVHNAKTKPREEQYNSTYRVVSVLTVLHQDWLNGKEYKCKVSNKALGAPIEKTISKAKGQPREPQVCTLPPSREEMTKNQVSLSCAVKGFYPSDIAVEWESNGQPENNYKTTPPVLDSDGSFFLVSKLTVDKSRWQQGNVFSCSVMHEALHNHYTQKSLSLSPGK
notes: Structure 13 (Fab(cross Fd/LC)-Fc-VH): CD3 Fab from PR000511, BCMA VH from PR000943; IgG1 knob/hole, AAG
B3: PR001997 (bispecific antibody, IgG1)
chain 1: B1 chain 1
chain 2: B1 chain 2
chain 3: B2 chain 3 with P28T, S35T, R56S, N99I, W100A, I101V, D102A, R104H, A106V
notes: Structure 13 (Fab(cross Fd/LC)-Fc-VH): CD3 Fab from PR000511, BCMA VH from PR001035; IgG1 knob/hole, AAG
B4: PR001998 (bispecific antibody, IgG1)
chain 1: B1 chain 1
chain 2: B1 chain 2
chain 3: EVQLVETGGGLIQPGGSLRLSCAASGFTVSDNYMTWVRQAPGKGLEWVSVIFSGGNTYYADSVKGRFTISRDNAKNTLYLQMNSLRAEDTALYYCARRNYDDTRGTDVFDIWGQGTMVTVSSASEPKSSDKTHTCPPCPAPEAAGGPSVFLFPPKPKDTLMISRTPEVTCVVVDVSHEDPEVKFNWYVDGVEVHNAKTKPREEQYNSTYRVVSVLTVLHQDWLNGKEYKCKVSNKALGAPIEKTISKAKGQPREPQVCTLPPSREEMTKNQVSLSCAVKGFYPSDIAVEWESNGQPENNYKTTPPVLDSDGSFFLVSKLTVDKSRWQQGNVFSCSVMHEALHNHYTQKSLSLSPGK
notes: Structure 13 (Fab(cross Fd/LC)-Fc-VH): CD3 Fab from PR000511, BCMA VH from PR001046; IgG1 knob/hole, AAG

What follows are binders tested against T1, human CD3 (TCR/CD3 complex) on human T cells (human, UniProt P07766 23-207) (assay: flow cytometry (FACS) on human T cells, Experiment 2).
T1 construct: whole, on cells
T1 sequence (P07766 23-207, one chain of several): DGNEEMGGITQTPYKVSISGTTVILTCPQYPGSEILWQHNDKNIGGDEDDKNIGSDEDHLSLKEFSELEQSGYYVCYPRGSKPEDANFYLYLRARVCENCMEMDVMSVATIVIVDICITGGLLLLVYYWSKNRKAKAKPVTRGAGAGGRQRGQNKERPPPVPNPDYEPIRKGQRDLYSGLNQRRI
Experimental: The binding ability of the antibody molecules to human or cynomolgus monkey T cells was tested by flow cytometry FACS. […] The T cell density was adjusted to 1×10⁶ cells/mL. […] The cells were incubated at 4° C. for 1 h away from light. Then, the cells in each well were rinsed twice with 100 μL of pre-cooled PBS, and centrifuged at 500 g at 4° C. for 5 min, and then the supernatant was discarded. […] The cells in each well were rinsed twice with 100 μL of pre-cooled PBS, and centrifuged at 500 g at 4° C. for 5 min, and then the supernatant was discarded. Finally, the cells in each well were resuspended in 200 μL of pre-cooled PBS. Fluorescence signal values were read using a BD FACS CANTOII flow cytometer or an ACEA NovoCyte flow cytometer, and the data were processed and analyzed using FlowJo v10 (FlowJo, LLC) software. The data were processed and analyzed by plotting using GraphPad Prism 8 software, and binding curves of the antibodies to target cells, EC₅₀ values and other parameters were obtained through four-parameter nonlinear fitting.

Q: How did the “Maximum MFI” value turn out when B1 was run?
A: 2920 MFI

Q: Which “Maximum MFI” value does the source give for B2 here?
A: 3440 MFI

Q: With B3 as the binder, how does the “Maximum MFI” value read?
A: 4460 MFI

Q: Which “Maximum MFI” value does the source give for B4 here?
A: 3320 MFI
